US20180022822A1, “NOVEL ANTI-FIBROBLAST ACTIVATION PROTEIN (FAP) BINDING AGENTS AND USES THEREOF” (Mabimmune Diagnostics AG, priority 2016, published 2018)

T1: transmembrane human FAP on FAP expressing HEK293 cells (Homo sapiens, UniProt Q12884)
T1 construct: HEK293 cells were transduced with retrovirus encoding full length human FAP cDNA; host or cells: HEK293 (retroviral transduction, G418 selected)
T1 sequence (Q12884 1-760): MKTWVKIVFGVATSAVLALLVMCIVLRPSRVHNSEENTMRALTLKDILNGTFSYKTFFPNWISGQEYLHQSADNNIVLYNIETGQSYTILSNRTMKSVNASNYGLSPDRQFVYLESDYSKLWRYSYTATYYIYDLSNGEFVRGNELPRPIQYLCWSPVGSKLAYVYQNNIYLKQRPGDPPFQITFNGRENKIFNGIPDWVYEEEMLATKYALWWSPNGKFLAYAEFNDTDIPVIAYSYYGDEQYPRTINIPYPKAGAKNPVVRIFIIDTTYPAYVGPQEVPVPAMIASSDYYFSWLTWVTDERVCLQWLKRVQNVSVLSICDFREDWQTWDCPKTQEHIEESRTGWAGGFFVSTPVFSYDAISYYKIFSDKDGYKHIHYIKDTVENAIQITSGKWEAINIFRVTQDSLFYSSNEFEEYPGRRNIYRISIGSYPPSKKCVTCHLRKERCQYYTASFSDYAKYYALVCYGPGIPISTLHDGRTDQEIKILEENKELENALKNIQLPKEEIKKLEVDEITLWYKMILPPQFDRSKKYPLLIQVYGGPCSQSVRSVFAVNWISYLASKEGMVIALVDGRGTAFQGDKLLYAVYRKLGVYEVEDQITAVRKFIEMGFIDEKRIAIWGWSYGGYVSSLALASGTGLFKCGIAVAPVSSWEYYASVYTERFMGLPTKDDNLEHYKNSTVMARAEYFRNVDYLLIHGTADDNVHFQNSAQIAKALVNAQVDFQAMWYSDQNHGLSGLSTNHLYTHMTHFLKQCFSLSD

T2: captured FAP (sFAP) (Homo sapiens, UniProt Q12884)
T2 sequence (Q12884 1-760): T1 sequence (Q12884 1-760)

B1: NI-206.82C2: human-derived recombinant anti-FAP antibody; VH SEQ ID NO: 2 or 4 (PIMC), VL SEQ ID NO: 6 (antibody, V domains shown)
VH: QVQLQQSGPGLVKPSQTLSLTCAISGDSVSSNSVTWNWIRQSPSRGLEWLGRTYYRSKWYNDYAVSVKGRITINPDTSKNQFYLQLKSVTPEDAAVYYCARDSSILYGDYWGQGTLVTVSS
VL: QAVLTQPSSLSASPGASASLTCTLPSGINVGTYRIFWFQQKPGSPPQYLLSYKSDSDNHQGSGVPSRFSGSKDASANAGILLISGLQSEDEADYYCMIWHSSAWVFGGGTKLTVL
B2: NI-206.6D3: human-derived recombinant anti-FAP antibody; VH SEQ ID NO: 49, VL SEQ ID NO: 51 (antibody, listed as Homo sapiens, V domains shown)
VH: EVQLVESGGGLVKPGESLRLSCAASGFTFSKAWMNWVRQGPGKGLEWVGRVKSKTDGGTTDYAAPVKGRFTISRDDSKDTVFLQMNSLKTEDTAVYYCSIQFIVVGDRGRDDQYMDVWGKGTTVTVSS
VL: SYVLTQPPSVSVSPGQTARITCSGDALPKQYAFWYQQKPGQAPVIMIYKDNQRPSGIPERFSGSSSGTTVTLTISGVQTEDEADYYCQSADSTNTHVVFGGGTKLTVL
B3: NI-206.18H2: human-derived recombinant anti-FAP antibody; VH SEQ ID NO: 41, VL SEQ ID NO: 43 (antibody, listed as Homo sapiens, V domains shown)
VH: QVQLQESGPRLVKPSETLSLTCTVSGYSISNGYYWGWIRQPPGQGLEWIASVWHSGNTYHNPSLKSRVTILVDTLKNQFSLNLKSVTAADTALYYCARSYTRNDVGAFETWGQGTMVTVSS
VL: SYELTQPPSVSVSPGQTARIACSGDELPKRYAYWYQQKSGQAPVLVMYEDTKRPSGIPERLSGSSSGTVTTLTISGAQVEDEADYYCYSTAPSGNHTFVFGTGTRVTVL

Test system: directly coated FAP peptides mixture (cFAP)
Assay: direct ELISA on coated mixture of FAP peptides
Type: binding, human
Settings: peptides 378-392, 622-636, 721-736
Protocol: (§1) ELISA assays were performed with varying antibody concentrations to validate the binding of the exemplary antibodies of the present invention to FAP and to be able to determine their half maximal effective concentration (EC50). For the exemplary recombinant human NI-206-18H2, NI-206-20A8, NI-206-6D3, ‘NI-206-14C5, NI-206-34C11, NI-206.82C2, NI-206.59B4, NI-206.22F7, NI-206.27E8, NI-206.12G4 and NI-206.17A6 antibodies, 96-well microplates (Costar, Corning, USA) were coated with FAP, with a mixture of the 3 peptides or with BSA (Sigma-Aldrich, Buchs, Switzerland) diluted to a concentration of 5 μg/ml in carbonate ELISA coating buffer (15 mM Na2CO3, 35 mM NaHCO3, pH 9.4) for the direct ELISA. For the capture ELISA, the microplates were coated with mouse anti-His monoclonal antibody (Clontech) diluted to a concentration of 3 μg/ml in PBS, the plates were then blocked, FAP or BSA were diluted to a concentration of 2 μg/ml in PBS and added to the plates to be captured. The binding efficiency of the antibodies was then tested.
(§2) The EC50 values were estimated by a non-linear regression using GraphPad Prism (San Diego, USA) software. […] The binding of NI-206.12G4 towards sFAP was not tested.

| EC50 to the directly coated FAP peptides mixture (cFAP) | Molecule |
| --- | --- |
| did not show any binding | B1 |
| did not show any binding | B2 |
| did not show any binding | B3 |

Target: T1, transmembrane human FAP on FAP expressing HEK293 cells
Assay: flow cytometry of Cy5 labelled antibodies on FAP-HEK293 cells in pH adjusted PBS
Type: cell-based
Settings: pH 7.4 to 6.2; 0.1-100 nM Cy5 labelled antibody
Protocol: To evaluate the binding of NI-206.82C2, NI-206.59B4, NI-206.27E8, NI-206.12G4, NI-206.18H2 and NI-206.6D3 to transmembrane human FAP, an FAP expressing HEK293 cell line was received from the National Institutes of Health, Bethesda, Md. The generation of this FAP expressing HEK293 cells is described in: J. Exp. Med. 2013 Vol. 210 No. 6 1125-1135. HEK293 cells were transduced with retrovirus encoding full length human FAP cDNA. Cloning was performed using Fast Cloning Pack and FastDigest restriction enzymes (both from Fermentas). Transient retroviral supernatants were generated by transfecting 293GP cells with the FAP plasmid using Lipofectamine 2000 (Invitrogen). Retroviral supernatants were collected at 48 h after transfection and centrifuged onto Retronectin-coated (10 μg/ml; Takara), non-tissue culture-treated 6-well plates at 2,000 G for 2 h at 32° C. These retroviral supernatants where then used to transduce HEK293 cells overnight. Transduced FAP-HEK293 cells were selected with 1 mg/ml G418 (CellGro).
500′000 FAP-HEK293 cells were incubated for 1 hr at 4° C. either with Cy5 labelled NI-206.82C2, NI-206.59B4, NI-206.27E8, NI-206.12G4, NI-206.18H2 or NI-206.6D3 or with Cy5 labelled 43A11 at four different antibody concentrations (0.1, 1, 10, and 100 nM) in seven different pH-adjusted PBS buffers (pH 7.4, 6.8, 6.6, 6.5, 6.4, 6.3 and 6.2). PBS buffers were adjusted to using MES monohydrate (Sigma Aldrich). Following incubation, cells were washed 3 times with 200 uL in matched pH-adjusted PBS, spun at 400G for 4 min, and resuspended in 200 μL of pH adjusted buffer.
To analyze antibody binding, fluorescent activated flow cytometry was performed using a BD Fortesa device for forward scatter, side scatter, and the mean fluorescent intensity (MFI) of the Cy5 channel was recorded using a […] laser excitation and 600/20 filter. Viable cells were gated by forward and side scatter, and singlets/doublet exclusion, and the MFI for Cy5 was quantified using FlowJo software Version 10.1.

| paratope-specific avidity (ΔMFI) under acidic conditions vs. at pH 7.4 | Molecule |
| --- | --- |
| increased | B1 |
| increased | B2 |
| increased | B3 |

Target: T2, captured FAP (sFAP)
Assay: capture ELISA, FAP captured via his-tag with coated anti-His antibody
Type: binding
Settings: ELISA, varying antibody concentrations
Protocol: as §1, §2

| binding to the captured FAP | Molecule |
| --- | --- |
| specifically and strongly binds | B1 |
| strongly and similarly bind | B2 |

| Molecule | binding to the captured FAP |
| --- | --- |
| B3 | specifically, strongly and similarly bind |
